Target: 6His-PfJ (4.1R binding region of Plasmodium falciparum erythrocyte binding antigen-181, aa 945-1097) (P. falciparum) (UniProt Q8I2B4)
Test: pull-down; ~700 ng 6His-PfJ coupled to His-Select magnetic beads, GST-4.1R domain (150 ng to 2 μg; heat denatured protein as control) added for 1 hr at room temperature, rinsed with TBS, eluted with 1% SDS, SDS-PAGE with scanning densitometry; Kd a rough estimate from linear transformations of three curves

## GST-10 kDa domain of human erythrocyte protein 4.1 (4.1R) (domain or fragment)
  Kd: 745 nM
